# Measurements taken from patent US20160039921A1 (published 2016).
# T1: recombinant human VEGF165 protein (human, UniProt P15692 27-191)
# T1 chain: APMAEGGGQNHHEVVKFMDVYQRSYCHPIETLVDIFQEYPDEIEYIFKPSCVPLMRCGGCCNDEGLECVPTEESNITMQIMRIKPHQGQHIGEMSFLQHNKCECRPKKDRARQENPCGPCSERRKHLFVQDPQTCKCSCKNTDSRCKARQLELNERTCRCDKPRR
# B1: murine PV19 monoclonal antibody (antibody, V domains shown)
# VH: QPGGAFWMCVSGGKVTISCKASGYSFTNSGINWVKQAPGKGLKWMGWINTYTGEPTYADDFKGRFAFSLETSASSAYLQINNLKNEDTATYFCARFGDGYYWFFDVWGAGTTVTVS
# VL: DIVMSQSPSSLAVSAGEKVTLSCKSSQSLLNSRTRKNFLAWYQQKPGQSPKLLIYWASTRESGVPDRFTGSGSGTDFTLTISSVQAEDLAVYYCKQSYNLYTFGGGPT
# Molecular target: T1, recombinant human VEGF165 protein
# Assay: competitive ELISA (blocking of biotin-VEGF binding to VEGFR1)
binder,measurement,value
B1,IC50,< 1 nM
